16 substances from patent US20200024330A1 can be followed below.

A value given as a limit tells only on which side of the number the result lay.

Common to all, as to assay: cell-based or functional assay
For assay [1], the target named is HIV-1 Env of isolate MGRM-G-009 (subtype G) (HIV-1).
Assay [2] deals with HIV-1 MGRM-C-019 Env (HIV-1).
The target of assay [3] is HIV-1 Env of pseudovirus SC422661.8 (Acute), clade B (HIV-1).
For assay [4], the target named is HIV-1 Env of isolate 92UG046 (HIV-1).
The target of assay [5] is HIV-1 Env of isolate MGRM-G-011 (clade G pseudovirus) (HIV-1).
Assay [6] has as its target HIV-1 MGRM-C-010 Env (HIV-1).
Assay [7] addresses HIV-1 Env of isolate MGRM-G-006 (subtype G) (HIV-1).
Assay [8] addresses HIV-1 Env of isolate 92UG024 (clade D) (HIV-1).
For assay [9], the target named is HIV-1 Env of isolate MGRM-D-013 (HIV-1).
For assay [10], the target named is HIV-1 MGRM-C-015 Env (HIV-1).
For assay [11], the target named is HIV-1 MGRM-F1-018 Env (pseudovirus) (HIV-1).
Assay [12] addresses HIV-1 Env of isolate MGRM-F1-016 (HIV-1).
Assay [13] has as its target HIV-1 Env of isolate MGRM-G-014 (clade G pseudovirus) (HIV-1).
Assay [14] addresses HIV-1 94UG103 envelope protein (Env) on pseudovirus (HIV-1).
Assay [15] has as its target HIV-1 APV-17 envelope protein (Env) on pseudovirus (HIV-1).
The target in assay [16] is HIV-1 Env of isolate 92TH021 (HIV-1).
Assay [17] deals with HIV-1 Env of isolate MGRM-F1-013 (HIV-1).
The target in assay [18] is HIV-1 CMU02 envelope glycoprotein (Env) on pseudovirus (HIV-1).
Assay [19] has as its target HIV-1 TRJ04551.58 Env (pseudovirus) (HIV-1).
In assay [20] the target is HIV-1 Env of isolate MG RM-D-013 (subtype D) (HIV-1).
Assay [21] concerns the target HIV-1 Env of isolate 98IN022 (pseudovirus) (HIV-1 isolate 98IN022, subtype C).
The target in assay [22] is HIV-1 Env of isolate MGRM-C-009 (pseudovirus) (HIV-1 isolate MGRM-C-009, subtype C).
Assay [23] has as its target HIV-1 APV_6 Env (pseudovirus) (HIV-1).
For assay [24], the target named is HIV-1 Env of isolate MGRM-C-017 (pseudovirus) (HIV-1 isolate MGRM-C-017, subtype C).
The target in assay [25] is HIV-1 THR0.18 Env (pseudovirus) (HIV-1).
Assay [26] deals with HIV-1 Env of isolate MG RM-AG-002 (HIV-1).
For assay [27], the target named is HIV-1 Env of isolate MGRM-C-012 (pseudovirus) (HIV-1 isolate MGRM-C-012, subtype C).
The target in assay [28] is HIV-1 Env of isolate MGRM-C-025 (pseudovirus) (HIV-1 isolate MGRM-C-025, subtype C).
The target in assay [29] is HIV-1 Env of isolate 92UG046 (subtype D) (HIV-1).
For assay [30], the target named is HIV-1 JR-CSF Env E172A (HIV-1 (isolate JR-CSF)) (UniProt P20871).
Assay [31] deals with HIV-1 Env of isolate 92WR026 (HIV-1).
For assay [32], the target named is HIV-1 JR-CSF Env D167A (HIV-1 (isolate JR-CSF)) (UniProt P20871).
For assay [33], the target named is HIV-1 Env of isolate MGRM-AE-008 (CRF01_AE), on pseudovirus (HIV-1).
The target in assay [34] is HIV-1 Env of isolate MGRM-AE-006 (CRF01_AE), on pseudovirus (HIV-1).
The target of assay [35] is HIV-1 Env of isolate MGRM-D-001 (HIV-1).
The target of assay [36] is HIV-1 Env of isolate TRO.11 (HIV-1).
Assay [37] concerns the target HIV-1 Env of isolate MGRM-D-018 (HIV-1).
The target in assay [38] is HIV-1 Env of isolate MGRM-AG-006 (CRF_AG), on pseudovirus (HIV-1).
Assay [39] addresses HIV-1 Env of isolate MGRM-Chronic-B-004 (HIV-1).
In assay [40] the target is HIV-1 93UG077 envelope glycoprotein (Env) (HIV-1).

5345_I01 (PGT-137) (antibody), sequence (VH): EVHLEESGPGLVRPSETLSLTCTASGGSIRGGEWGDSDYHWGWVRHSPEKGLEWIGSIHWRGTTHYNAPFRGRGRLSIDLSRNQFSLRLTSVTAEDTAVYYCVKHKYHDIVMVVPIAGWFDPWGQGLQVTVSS
5345_I01 (PGT-137) (antibody), sequence (VL): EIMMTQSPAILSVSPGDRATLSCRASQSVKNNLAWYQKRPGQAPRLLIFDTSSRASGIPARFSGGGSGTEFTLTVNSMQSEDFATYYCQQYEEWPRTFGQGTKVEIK
5329_C19 (PGT-136) (antibody), sequence (VH): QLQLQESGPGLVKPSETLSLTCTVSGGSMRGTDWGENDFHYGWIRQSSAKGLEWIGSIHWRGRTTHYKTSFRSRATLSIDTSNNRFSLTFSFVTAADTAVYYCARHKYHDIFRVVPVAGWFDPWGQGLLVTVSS
5329_C19 (PGT-136) (antibody), sequence (VL): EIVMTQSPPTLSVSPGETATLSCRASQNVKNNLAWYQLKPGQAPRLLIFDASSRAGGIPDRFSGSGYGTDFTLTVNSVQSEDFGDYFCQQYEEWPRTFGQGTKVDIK
PGT-144 (4970_K22) (antibody), sequence (VH): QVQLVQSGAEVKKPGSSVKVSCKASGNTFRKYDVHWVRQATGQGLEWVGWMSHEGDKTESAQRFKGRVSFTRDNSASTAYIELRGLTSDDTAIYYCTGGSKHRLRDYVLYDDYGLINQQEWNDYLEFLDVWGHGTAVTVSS
PGT-144 (4970_K22) (antibody), sequence (VL): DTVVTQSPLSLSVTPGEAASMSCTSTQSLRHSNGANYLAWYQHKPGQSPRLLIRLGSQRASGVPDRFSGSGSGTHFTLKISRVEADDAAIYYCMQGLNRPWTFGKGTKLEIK
PGT-142 (4995_E20) (antibody), sequence (VH): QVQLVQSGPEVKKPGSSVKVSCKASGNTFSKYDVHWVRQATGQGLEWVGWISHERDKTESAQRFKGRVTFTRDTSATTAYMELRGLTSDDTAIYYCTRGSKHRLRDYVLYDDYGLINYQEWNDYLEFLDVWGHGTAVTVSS
PGT-142 (4995_E20) (antibody), sequence (VL): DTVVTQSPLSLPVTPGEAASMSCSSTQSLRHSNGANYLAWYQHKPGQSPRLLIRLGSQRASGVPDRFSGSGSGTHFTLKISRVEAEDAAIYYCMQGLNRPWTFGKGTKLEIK
PGT-141 (4964_G22; 4993_K13) (antibody), sequence (VH): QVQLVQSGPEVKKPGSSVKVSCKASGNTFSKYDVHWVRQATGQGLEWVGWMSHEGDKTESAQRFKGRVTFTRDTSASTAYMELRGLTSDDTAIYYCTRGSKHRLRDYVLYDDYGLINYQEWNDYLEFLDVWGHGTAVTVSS
PGT-143 (4980_N08) (antibody), sequence (VH): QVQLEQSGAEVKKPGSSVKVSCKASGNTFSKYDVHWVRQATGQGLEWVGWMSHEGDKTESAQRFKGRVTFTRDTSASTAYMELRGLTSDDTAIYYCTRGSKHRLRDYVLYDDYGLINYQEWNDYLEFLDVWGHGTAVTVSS
PGT-143 (4980_N08) (antibody), sequence (VL): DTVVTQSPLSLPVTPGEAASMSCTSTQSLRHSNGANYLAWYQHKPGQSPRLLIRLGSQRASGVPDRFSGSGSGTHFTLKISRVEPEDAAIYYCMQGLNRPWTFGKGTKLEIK

As usually defined, the IC50 is the concentration that inhibits the measured activity by half. A low value points to greater potency in that assay. For 1496_C09 (PG9) (TCN-109) (antibody), the neutralization IC50 in assay [1] came out at 10.7 mg/L; in [7], 1.98 mg/L; in [14] it was 0.173 mg/L; in [15], 26.4 mg/L. For the same substance, the results for the IC50 in assay [2], in assay [6] and in [10] were 0.01 mg/L, 12.4 mg/L and 0.5 mg/L, respectively. Moreover, the IC50 (µg/ml), pseudovirus neutralization in assay [3] came to 0.79 µg/mL; in assay [5], 0.19 µg/mL; in assay [8] it was 1.91 µg/mL; in assay [11], 0.03 µg/mL; in assay [13], 6.32 µg/mL; in assay [16], 0.09 µg/mL. Further, the IC50 (µg/mL), pseudovirus neutralization turned out to be 1.86 µg/mL in assay [4]; 0.021 µg/mL in assay [9]; 0.518 µg/mL in assay [12]; 0.059 µg/mL in assay [16]; 1.25 µg/mL in assay [17].

As to 4838_L06 (PGT-121) (antibody), the IC50 (ug/ml), neutralizing activity in assay [18] was above 10 µg/mL. The values for the IC50, pseudovirus neutralization in [19], in [23] and in assay [25] were 7.09 mg/L, 0.018 mg/L and above 50 mg/L, respectively. For the same substance, the IC50 (µg/mL), pseudovirus neutralization in assay [20] and in [29] was above 50 µg/mL throughout. Also, the IC50 (µg/mL) neutralization is 0.007 µg/mL in [21]; above 50 µg/mL in assay [22]; 0.009 µg/mL in assay [24]; 0.123 µg/mL in assay [27]; 46.8 µg/mL in [28]. Besides, the IC50 was found to be 0.931 mg/L in [12] and 0.083 mg/L in assay [17]. The substance further showed a neutralization IC50 in assay [26] above 50 mg/L.

5114_A19 (PGT-128) (antibody): the Fold IC50 increase relative to wild-type in [30] is 2.5 fold; in assay [32], 0.3 fold. Further, the IC50 in assay [4] is above 50 mg/L; in assay [9], 8.85 mg/L; in [35], 0.138 mg/L; in assay [36], 0.018 mg/L; in assay [37], 0.008 mg/L; in assay [39], 0.009 mg/L. The substance also gave a neutralization IC50 in assay [31] of 0.01 mg/L. In addition, the IC50, single-round pseudovirus neutralization in assay [33] was above 50 mg/L; in [34], 0.044 mg/L; in assay [38], 0.009 mg/L.

In the case of 5136_H01 (PGT-131) (antibody), the IC50 was above 50 mg/L in assay [4]; 4.14 mg/L in assay [9]; above 50 mg/L in assay [35]; 1.91 mg/L in [36]; 0.148 mg/L in [37]; 0.04 mg/L in [39]. The substance also yielded a neutralization IC50 in [31] of 0.041 mg/L. For the same substance, the Fold IC50 increase relative to wild-type in [32] worked out at 1.2 fold. The figures for the IC50, single-round pseudovirus neutralization in assay [33], in [34] and in assay [38] were above 50 mg/L, 0.026 mg/L and 0.019 mg/L, respectively.

In the case of 5147_N06 (PGT-130) (antibody), the IC50 (ug/ml), neutralizing activity in assay [18] was above 10 µg/mL. Moreover, the figures for the Fold IC50 increase relative to wild-type in assay [30] and in assay [32] were 1.4 fold and 1.2 fold, respectively. Also, the IC50 is above 50 mg/L in [4]; 0.429 mg/L in [9]; above 50 mg/L in assay [35]; 0.257 mg/L in assay [36]; 0.049 mg/L in [37]; 0.01 mg/L in [39]. Besides, the neutralization IC50 was 0.037 mg/L in assay [31] and above 10 mg/L in [8]. Further, the IC50, single-round pseudovirus neutralization is above 50 mg/L in assay [33], 0.009 mg/L in [34] and 0.009 mg/L in [38]. This substance gave a neutralization IC80 in assay [8] above 10 mg/L. In addition, the neutralization IC90 in assay [8] is above 10 mg/L. The neutralization IC95 in assay [8] was above 10 mg/L.

With 5329_C19 (PGT-136) (antibody), the IC50 in [4] is above 50 mg/L; in [9] it was above 50 mg/L; in assay [35], above 50 mg/L; in assay [36], 0.073 mg/L; in assay [37], above 50 mg/L; in assay [39], above 50 mg/L. Moreover, the neutralization IC50 in assay [31] is above 50 mg/L. Moreover, the IC50, single-round pseudovirus neutralization was above 50 mg/L in assay [33], above 50 mg/L in assay [34] and 29.1 mg/L in assay [38].

As for 5343_B08 (PGT-135) (antibody), the Fold IC50 increase relative to wild-type in assay [30] turned out to be 1.3 fold; in assay [32], 0.7 fold. Further, the IC50 was above 50 mg/L in [4]; above 50 mg/L in assay [9]; above 50 mg/L in assay [35]; 0.03 mg/L in [36]; 0.039 mg/L in assay [37]; above 50 mg/L in [39]. In addition, the neutralization IC50 in [31] amounted to 0.068 mg/L. The IC50, single-round pseudovirus neutralization was above 50 mg/L in assay [33], above 50 mg/L in assay [34] and 17.9 mg/L in assay [38].

Regarding 5345_I01 (PGT-137) (antibody), the IC50 in assay [4] is above 50 mg/L; in assay [9] it was above 50 mg/L; in assay [35] it was above 50 mg/L; in assay [36], 9.35 mg/L; in assay [37] it was 15.1 mg/L; in [39] it was above 50 mg/L. This substance also returned a neutralization IC50 in assay [31] of 0.092 mg/L. Also, the figures for the IC50, single-round pseudovirus neutralization in assay [33], in [34] and in assay [38] were above 50 mg/L, above 50 mg/L and 28.3 mg/L, respectively.

Take PGT-121 (antibody): the IC50 (µg/mL), pseudovirus neutralization in [31] is 0.014 µg/mL; in [16], above 50 µg/mL. For the same substance, the IC50 neutralization in [40] amounted to 0.0459 mg/L.

As for PGT-122 (antibody), the IC50 (µg/mL), pseudovirus neutralization was 0.036 µg/mL in assay [31] and above 50 µg/mL in assay [16]. In assay [40], this substance had an IC50 neutralization of 0.191 mg/L.

In the case of PGT-141 (4964_G22; 4993_K13) (antibody), the values for the neutralization IC50 in [1] and in [7] were 1.89 mg/L and 0.043 mg/L, respectively.

PGT-142 (4995_E20) (antibody): the neutralization IC50 in assay [1] turned out to be 2.81 mg/L; in [7] it was 0.019 mg/L.

On to PGT-143 (4980_N08) (antibody), for which the neutralization IC50 was determined as 2.97 mg/L in assay [1] and 0.031 mg/L in assay [7].

Consider PGT-144 (4970_K22) (antibody), for which the neutralization IC50 is above 50 mg/L in [1] and 3.84 mg/L in assay [7].

Consider PGV04 (antibody), for which the neutralization IC50 came to 0.043 mg/L in assay [1] and 0.083 mg/L in [7]. In addition, the IC50 (µg/mL), pseudovirus neutralization in [4] was 22.4 µg/mL; in [9] it was 0.088 µg/mL; in assay [35], above 50 µg/mL; in [12] it was 0.268 µg/mL; in [37], 17.5 µg/mL; in assay [16] it was 1.29 µg/mL. This substance registered an IC50 (µg/mL), pseudovirus neutralization in assay [17] of 0.084 µg/mL.

As for VRC01 (antibody), the neutralization IC50 is 0.073 mg/L in assay [1], 0.055 mg/L in assay [7] and 0.186 mg/L in [36]. The IC50, pseudovirus neutralization was 0.087 mg/L in assay [9], 0.517 mg/L in assay [12], above 50 mg/L in [37] and 0.17 mg/L in [17]. For the same substance, the IC50 in [39] was 0.055 mg/L.
